From patent US20220177584A1 (Janssen / Centocor, published 2022)

Target: cynomolgus monkey GPRC5D (cynomolgus monkey)
Test: cell-based or functional assay

B1: talquetamab (bispecific antibody, human IgG4 S228P, lambda, F234A L235A)
heavy 1: not shown
light 1: DIQMTQSPSSLSASVGDRVTITCKASQNVATHVGWYQQKPGKAPKRLIYSASYRYSGVPSRFSGSGSGTEFTLTISNLQPEDFATYYCQQYNRYPYTFGQGTKLEIKKAAPSVTLFPPSSEELQANKATLVCLISDFYPGAVTVAWKGDSSPVKAGVETTTPSKQSNNKYAASSYLSLTPEQWKSHRSYSCQVTHEGSTVEKTVAPTECS
heavy 2: EVQLVESGGGLVQPGGSLRLSCAASGFTFNTYAMNWVRQAPGKGLEWVARIRSKYNNYATYYAASVKGRFTISRDDSKNSLYLQMNSLKTEDTAVYYCARHGNFGNSYVSWFAYWGQGTLVTVSSASTKGPSVFPLAPCSRSTSESTAALGCLVKDYFPEPVTVSWNSGALTSGVHTFPAVLQSSGLYSLSSVVTVPSSSLGTKTYTCNVDHKPSNTKVDKRVESKYGPPCPPCPAPEAAGGPSVFLFPPKPKDTLMISRTPEVTCVVVDVSQEDPEVQFNWYVDGVEVHNAKTKPREEQFNSTYRVVSVLTVLHQDWLNGKEYKCKVSNKGLPSSIEKTISKAKGQPREPQVYTLPPSQEEMTKNQVSLTCLVKGFYPSDIAVEWESNGQPENNYKTTPPVLDSDGSFLLYSKLTVDKSRWQEGNVFSCSVMHEALHNHYTQKSLSLSLGK
light 2: QTVVTQEPSLTVSPGGTVTLTCRSSTGAVTTSNYANWVQQKPGQAPRGLIGGTNKRAPGTPARFSGSLLGGKAALTLSGVQPEDEAEYYCALWYSNLWVFGGGTKLTVLGQPKAAPSVTLFPPSSEELQANKATLVCLISDFYPGAVTVAWKADSSPVKAGVETTTPSKQSNNKYAASSYLSLTPEQWKSHRSYSCQVTHEGSTVEKTVAPTECS
In the case of B1, the “in vivo pharmacological activity, cynomolgus monkey against human” value is reported as ~100 fold lower.
